From the supplement of paper PMC7125110
± gives the standard error. For part of these data: This sample holds only a part of the variants without activity.

B1: glmS ribozyme (parent)
chain: AUAAAAGCGCCAGAACUACAGAAAUGUAGUUGACGAGGAGGAGGUUUAUCGAAUUUUCGGCGGAUGCCUCCAAA

Experiments:
Details in all cases: with glucosamine-6-phosphate
[1] = variants of: B1; test: kcat; higher = faster cleavage; RNA array
Procedure, shortened: (§1)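 Glucosamine-6-phosphate in HEPES/KCl/Mg(OAc)2 buffer, at 40 μM to 10 mM, was flowed over barcoded ribozyme variants transcribed in situ by E. coli RNA polymerase on sequenced MiSeq chips. Tracking was through a hybridised Cy3 probe at 37 °C. kobs, kcat and KM came from exponential decay fits and weighted Michaelis–Menten fits of normalised per-tile medians.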

[2] = variants of: B1; test: self-cleavage kobs at 10000 uM GlcN6P; higher = faster cleavage; RNA array
Procedure, shortened: as §1

[3] = variants of: B1; test: self-cleavage kobs at 40 uM GlcN6P; higher = faster cleavage; RNA array
Procedure, shortened: as §1

[4] = variants of: B1; test: self-cleavage kobs at 640 uM GlcN6P; higher = faster cleavage; RNA array
Procedure, shortened: as §1

[5] = variants of: B1; test: self-cleavage kobs at 2500 uM GlcN6P; higher = faster cleavage; RNA array
Procedure, shortened: as §1

[6] = variants of: B1; test: KM; higher = weaker cofactor use; RNA array
Procedure, shortened: as §1

[7] = variants of: B1; test: self-cleavage kobs at 160 uM GlcN6P; higher = faster cleavage; RNA array
Procedure, shortened: as §1

| Variant | kcat [1] | self-cleavage kobs at 10000 uM GlcN6P [2] | self-cleavage kobs at 40 uM GlcN6P [3] | self-cleavage kobs at 640 uM GlcN6P [4] | self-cleavage kobs at 2500 uM GlcN6P [5] | KM [6] | self-cleavage kobs at 160 uM GlcN6P [7] |
| --- | --- | --- | --- | --- | --- | --- | --- |
| A36C U55C | < 1e-05 s⁻¹ | < 1e-05 s⁻¹ | – | – | – | – | – |
| A39G A52U | 0.00125 ± 0.00024 s⁻¹ | 0.00054 ± 7.6e-05 s⁻¹ | < 1e-05 s⁻¹ | 4.99e-05 ± 2.1e-05 s⁻¹ | 0.000222 ± 4.6e-05 s⁻¹ | – | – |
| A39G U46C | 0.00815 ± 0.0014 s⁻¹ | 0.00601 ± 0.0018 s⁻¹ | 0.000292 ± 6.4e-05 s⁻¹ | 0.00369 ± 0.00073 s⁻¹ | 0.0069 ± 0.0015 s⁻¹ | 946 ± 240 µM | 0.00135 ± 0.00039 s⁻¹ |
| G37A U46C | 0.0015 ± 0.00029 s⁻¹ | 0.00117 ± 0.00017 s⁻¹ | – | 0.000204 ± 3e-05 s⁻¹ | 0.00046 ± 8e-05 s⁻¹ | 4230 ± 1100 µM | 5.92e-05 ± 9.2e-06 s⁻¹ |
| G37C U57G | 1.13e-05 ± 4.5e-06 s⁻¹ | < 1e-05 s⁻¹ | – | – | – | – | < 1e-05 s⁻¹ |
| G38U G63A | < 1e-05 s⁻¹ | – | < 1e-05 s⁻¹ | – | – | – | < 1e-05 s⁻¹ |
| A39C A42U | 0.000187 ± 4e-05 s⁻¹ | 0.000143 ± 2.2e-05 s⁻¹ | – | – | 0.000135 ± 2.9e-05 s⁻¹ | – | – |
| A36U A64G C70U | 6.13e-05 ± 1.3e-05 s⁻¹ | 5.17e-05 ± 1.8e-05 s⁻¹ | – | – | 7.29e-05 ± 2.6e-05 s⁻¹ | – | – |
| A39G U54C | 0.0135 ± 0.004 s⁻¹ | – | 0.000807 ± 0.00031 s⁻¹ | 0.00774 ± 0.0024 s⁻¹ | 0.00946 ± 0.0035 s⁻¹ | 759 ± 340 µM | 0.00183 ± 0.0008 s⁻¹ |
| A39U C61U | < 1e-05 s⁻¹ | – | – | – | – | – | – |
| G40C A53U | 0.00427 ± 0.00097 s⁻¹ | 0.0035 ± 0.00035 s⁻¹ | 8.31e-05 ± 9.2e-06 s⁻¹ | 0.000607 ± 0.00011 s⁻¹ | 0.00226 ± 0.00037 s⁻¹ | 2570 ± 870 µM | 0.000241 ± 5.8e-05 s⁻¹ |
| G40C A53G | 0.00206 ± 0.00018 s⁻¹ | 0.00166 ± 0.00025 s⁻¹ | 4.19e-05 ± 1.7e-05 s⁻¹ | 0.000539 ± 0.00012 s⁻¹ | 0.00115 ± 0.00032 s⁻¹ | 2160 ± 310 µM | 0.000126 ± 3e-05 s⁻¹ |
| G35U U55C | < 1e-05 s⁻¹ | < 1e-05 s⁻¹ | < 1e-05 s⁻¹ | – | < 1e-05 s⁻¹ | – | < 1e-05 s⁻¹ |
| G38U G59C U69G | 4.16e-05 ± 1.3e-05 s⁻¹ | – | – | – | – | – | – |
| A39C C58U | 1.02e-05 ± 1.6e-06 s⁻¹ | – | – | – | – | – | – |
| A36U G66A | < 1e-05 s⁻¹ | – | – | – | – | – | < 1e-05 s⁻¹ |
| G37C U69G | 2.05e-05 ± 4e-06 s⁻¹ | – | – | – | – | – | – |
| G40A G41C A53G | 0.000315 ± 0.00011 s⁻¹ | – | – | 5.58e-05 ± 1.2e-05 s⁻¹ | 0.000139 ± 3.1e-05 s⁻¹ | 3110 ± 1500 µM | – |
| A36G | 2.12e-05 ± 2.6e-06 s⁻¹ | 1.89e-05 ± 1.4e-06 s⁻¹ | – | – | 1.72e-05 ± 3e-06 s⁻¹ | – | – |

| Variant | kcat [1] | self-cleavage kobs at 10000 uM GlcN6P [2] | self-cleavage kobs at 40 uM GlcN6P [3] | self-cleavage kobs at 640 uM GlcN6P [4] | self-cleavage kobs at 2500 uM GlcN6P [5] | KM [6] | self-cleavage kobs at 160 uM GlcN6P [7] |
| --- | --- | --- | --- | --- | --- | --- | --- |
| A36C | < 1e-05 s⁻¹ | – | – | – | – | – | < 1e-05 s⁻¹ |
| G40A C70G | 0.00031 ± 9.1e-05 s⁻¹ | 0.000244 ± 6.4e-05 s⁻¹ | – | 0.000105 ± 1.9e-05 s⁻¹ | 0.000394 ± 0.00012 s⁻¹ | – | – |
| A39G U56A | 0.0171 ± 0.0023 s⁻¹ | 0.0137 ± 0.0019 s⁻¹ | 0.000348 ± 6.9e-05 s⁻¹ | 0.0049 ± 0.00073 s⁻¹ | 0.0133 ± 0.0025 s⁻¹ | 1670 ± 340 µM | 0.00162 ± 0.00029 s⁻¹ |
| A39G C58A | 0.00088 ± 0.00013 s⁻¹ | 0.000642 ± 7.7e-05 s⁻¹ | – | 0.000129 ± 3e-05 s⁻¹ | 0.000275 ± 6.4e-05 s⁻¹ | 4140 ± 1100 µM | 4.38e-05 ± 1.9e-05 s⁻¹ |
| G37C G51A | < 1e-05 s⁻¹ | – | – | – | – | – | < 1e-05 s⁻¹ |
| A36G C70A | 1.58e-05 ± 4.3e-06 s⁻¹ | – | – | – | – | – | – |
| A36G A53U | 1.3e-05 ± 2.6e-06 s⁻¹ | – | < 1e-05 s⁻¹ | – | – | – | < 1e-05 s⁻¹ |
| A39G U55A | 0.0158 ± 0.0027 s⁻¹ | 0.017 ± 0.0039 s⁻¹ | 0.00131 ± 0.00023 s⁻¹ | 0.0115 ± 0.0025 s⁻¹ | 0.0107 ± 0.0029 s⁻¹ | 399 ± 110 µM | 0.00551 ± 0.0011 s⁻¹ |
| A39G U69G | 0.000101 ± 1.5e-05 s⁻¹ | 9.32e-05 ± 1e-05 s⁻¹ | 4.07e-05 ± 1.3e-05 s⁻¹ | 7.75e-05 ± 1.3e-05 s⁻¹ | 0.000143 ± 1.7e-05 s⁻¹ | – | 0.000114 ± 3.2e-05 s⁻¹ |
| G37A U65C | 0.000108 ± 1.4e-05 s⁻¹ | 8.61e-05 ± 1.1e-05 s⁻¹ | – | – | 6.65e-05 ± 1.7e-05 s⁻¹ | 2300 ± 1100 µM | – |
| G37U C68G | 2.11e-05 ± 5e-06 s⁻¹ | – | – | – | – | – | – |
| A39C U47C | 0.00157 ± 0.00025 s⁻¹ | 0.00131 ± 0.00011 s⁻¹ | 4.25e-05 ± 5.6e-06 s⁻¹ | 0.000327 ± 3.9e-05 s⁻¹ | 0.000934 ± 0.00011 s⁻¹ | 2020 ± 510 µM | 0.000105 ± 1.6e-05 s⁻¹ |
| A36U C68G | 0.000198 ± 5.7e-05 s⁻¹ | 0.000121 ± 3.4e-05 s⁻¹ | 7.38e-05 ± 1.2e-05 s⁻¹ | 0.000275 ± 3.5e-05 s⁻¹ | – | – | – |
| A36U A64G | 1.98e-05 ± 2e-06 s⁻¹ | 1.85e-05 ± 5.8e-06 s⁻¹ | – | – | – | – | – |
| G40A U55C A64G | 4.82e-05 ± 7.4e-06 s⁻¹ | – | – | – | – | 7420 ± 2400 µM | – |
| A36C U49G | 0.00221 ± 0.00064 s⁻¹ | 0.00186 ± 0.00031 s⁻¹ | 6.21e-05 ± 2.5e-05 s⁻¹ | 0.000416 ± 0.00011 s⁻¹ | 0.000851 ± 0.00021 s⁻¹ | – | – |
| G38A C71G | < 1e-05 s⁻¹ | – | – | – | – | – | – |
| G40A U57C | 3.56e-05 ± 5.2e-06 s⁻¹ | 3.15e-05 ± 1.2e-05 s⁻¹ | – | – | 4.59e-05 ± 2e-05 s⁻¹ | – | – |
| A39U A52U | 0.000201 ± 4.1e-05 s⁻¹ | 0.000141 ± 1.1e-05 s⁻¹ | – | – | 9.27e-05 ± 1.2e-05 s⁻¹ | 3930 ± 1900 µM | – |
